Results on 1 substance are retold here after article PMC6937560.

The target of the assay is myeloperoxidase (MPO), mature form from neutrophils of healthy human donors (human) (UniProt P05164). Description: native MS; about 3 uM MPO in 150 mM ammonium acetate pH 7.5, direct infusion, Micromass LCT; monomer (light + heavy chain) to dimer.

As for “myeloperoxidase (MPO), mature form from neutrophils of healthy human donors (from UniProt P05164 279-745) (enzyme)”, the stoichiometry N (as a rule, a count of units in the complex or per binding partner) stood at 2.
